According to paper PMC9482650, “Quantitative fragmentomics allow affinity mapping of interactomes” (Nature Communications, 2022):

Tests used:
Assay in all cases: holdup assay
Set-up in all cases: key: below the threshold = too weak to quantify, mostly under pKd 3.1 to 4
PTPN13_1, Q12923 = molecular target: T1, PTPN13_1, Q12923
T1 sequence (Q12923 1088-1188, limits assumed, looked up): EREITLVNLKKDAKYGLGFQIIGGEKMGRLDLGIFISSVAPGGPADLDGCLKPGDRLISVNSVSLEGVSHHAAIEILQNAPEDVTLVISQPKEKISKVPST

APBA1_2, Q02410 = molecular target: T2, APBA1_2, Q02410
T2 sequence (Q02410 742-832, limits assumed, looked up): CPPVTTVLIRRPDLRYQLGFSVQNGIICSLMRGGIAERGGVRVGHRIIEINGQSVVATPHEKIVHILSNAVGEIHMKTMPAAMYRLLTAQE

ARHGEF12, Q9NZN5-2 = molecular target: ARHGEF12, Q9NZN5-2
ARHGEF12, Q9NZN5-2, sequence (Q9NZN5 other isoform, or with tags, fused parts or gaps): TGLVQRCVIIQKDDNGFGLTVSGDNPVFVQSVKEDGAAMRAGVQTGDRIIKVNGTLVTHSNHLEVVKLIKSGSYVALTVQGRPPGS

LNX1_3, Q8TBB1 = molecular target: LNX1_3, Q8TBB1
LNX1_3, Q8TBB1, sequence (Q8TBB1 500-596): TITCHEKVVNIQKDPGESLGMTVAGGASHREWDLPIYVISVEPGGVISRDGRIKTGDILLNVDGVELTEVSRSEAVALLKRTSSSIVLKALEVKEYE

Inadl_9, Q8NI35 = molecular target: Inadl_9, Q8NI35
Inadl_9, Q8NI35, sequence (Q8NI35 1530-1615): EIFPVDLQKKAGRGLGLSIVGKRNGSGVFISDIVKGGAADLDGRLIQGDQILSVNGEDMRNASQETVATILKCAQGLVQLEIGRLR

MAGI1_1, Q96QZ7 = molecular target: MAGI1_1, Q96QZ7
MAGI1_1, Q96QZ7, sequence (Q96QZ7 1-106): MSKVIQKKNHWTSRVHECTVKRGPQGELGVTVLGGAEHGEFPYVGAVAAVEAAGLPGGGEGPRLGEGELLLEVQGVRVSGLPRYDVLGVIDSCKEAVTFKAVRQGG

MAGI2_4, Q86UL8 = molecular target: MAGI2_4, Q86UL8
MAGI2_4, Q86UL8, sequence (Q86UL8 772-865): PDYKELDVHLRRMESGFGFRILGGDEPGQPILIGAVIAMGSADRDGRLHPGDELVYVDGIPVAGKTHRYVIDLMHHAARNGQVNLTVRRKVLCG

HTRA3, P83110 = molecular target: T3, HTRA3, P83110
T3 sequence (P83110 354-453, limits assumed, looked up): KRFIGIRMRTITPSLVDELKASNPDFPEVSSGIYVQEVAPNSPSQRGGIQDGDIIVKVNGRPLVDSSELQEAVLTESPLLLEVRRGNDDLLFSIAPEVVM

NOS1, P29475 = molecular target: NOS1, P29475
NOS1, P29475, sequence (P29475 9-101): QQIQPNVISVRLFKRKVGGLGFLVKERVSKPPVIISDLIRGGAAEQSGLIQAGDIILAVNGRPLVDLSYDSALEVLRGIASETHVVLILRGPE

LNX2_2, Q8N448 = molecular target: T4, LNX2_2, Q8N448
T4 sequence (Q8N448 334-432, limits assumed, looked up): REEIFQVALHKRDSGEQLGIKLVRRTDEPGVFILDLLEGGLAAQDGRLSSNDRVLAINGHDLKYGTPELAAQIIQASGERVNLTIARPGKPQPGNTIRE

HTRA4, P83105 = molecular target: T5, HTRA4, P83105
T5 sequence (P83105 378-476, limits assumed, looked up): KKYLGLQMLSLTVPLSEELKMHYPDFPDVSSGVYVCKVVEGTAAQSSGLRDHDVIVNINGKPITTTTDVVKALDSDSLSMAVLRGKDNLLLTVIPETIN

MAGI2_5, Q86UL8 = molecular target: MAGI2_5, Q86UL8
MAGI2_5, Q86UL8, sequence (Q86UL8 915-1017): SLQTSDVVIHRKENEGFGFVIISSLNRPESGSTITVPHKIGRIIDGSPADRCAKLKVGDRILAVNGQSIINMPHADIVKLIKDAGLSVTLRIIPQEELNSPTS

MAGI2_2, Q86UL8 = molecular target: MAGI2_2, Q86UL8
MAGI2_2, Q86UL8, sequence (Q86UL8 410-522): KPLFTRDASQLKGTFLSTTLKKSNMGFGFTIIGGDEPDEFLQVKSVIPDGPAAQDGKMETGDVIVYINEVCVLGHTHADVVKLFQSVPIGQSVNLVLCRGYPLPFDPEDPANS

DLG4_3, P78352 = molecular target: DLG4_3, P78352
DLG4_3, P78352, sequence (P78352 306-403): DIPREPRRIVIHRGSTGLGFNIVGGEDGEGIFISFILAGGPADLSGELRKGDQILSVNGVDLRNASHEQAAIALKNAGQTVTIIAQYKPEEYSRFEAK

SCRIB_3, Q14160 = molecular target: SCRIB_3, Q14160
SCRIB_3, Q14160, sequence (Q14160 999-1103): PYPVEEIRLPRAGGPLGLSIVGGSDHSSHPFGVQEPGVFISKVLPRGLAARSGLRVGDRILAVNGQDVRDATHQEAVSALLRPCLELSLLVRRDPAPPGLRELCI

Inadl_4, Q8NI35 = molecular target: Inadl_4, Q8NI35
Inadl_4, Q8NI35, sequence (Q8NI35 547-651): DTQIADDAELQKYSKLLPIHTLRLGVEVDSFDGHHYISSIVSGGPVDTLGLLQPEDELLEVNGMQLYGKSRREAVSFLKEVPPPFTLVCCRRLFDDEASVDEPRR

APBA2_1, Q99767 = molecular target: T6, APBA2_1, Q99767
T6 sequence (Q99767 563-664, limits assumed, looked up): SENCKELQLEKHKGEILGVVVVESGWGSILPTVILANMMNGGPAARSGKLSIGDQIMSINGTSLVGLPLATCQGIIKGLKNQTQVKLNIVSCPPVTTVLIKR

AHNAK1, Q09666 = molecular target: AHNAK1, Q09666
AHNAK1, Q09666, sequence (Q09666 4-100): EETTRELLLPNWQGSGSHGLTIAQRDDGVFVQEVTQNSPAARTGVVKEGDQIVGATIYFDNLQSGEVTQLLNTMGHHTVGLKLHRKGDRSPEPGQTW

Inadl_3, Q8NI35 = molecular target: Inadl_3, Q8NI35
Inadl_3, Q8NI35, sequence (Q8NI35 359-469): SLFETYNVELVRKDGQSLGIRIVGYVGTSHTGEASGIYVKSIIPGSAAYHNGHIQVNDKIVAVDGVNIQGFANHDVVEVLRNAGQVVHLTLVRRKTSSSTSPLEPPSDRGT

MAGI2_3, Q86UL8 = molecular target: MAGI2_3, Q86UL8
MAGI2_3, Q86UL8, sequence (Q86UL8 600-682): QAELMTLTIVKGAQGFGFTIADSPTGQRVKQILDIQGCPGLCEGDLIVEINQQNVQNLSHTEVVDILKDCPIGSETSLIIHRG

SHANK1, Q9Y566 = molecular target: T7, SHANK1, Q9Y566
T7 sequence (Q9Y566 658-767, limits assumed, looked up): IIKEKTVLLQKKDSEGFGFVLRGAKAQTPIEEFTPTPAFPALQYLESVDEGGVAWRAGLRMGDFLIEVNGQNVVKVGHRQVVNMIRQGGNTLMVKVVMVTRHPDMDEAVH

FRMPD3, Q5JV73 = molecular target: FRMPD3, Q5JV73
FRMPD3, Q5JV73, sequence (Q5JV73 12-100): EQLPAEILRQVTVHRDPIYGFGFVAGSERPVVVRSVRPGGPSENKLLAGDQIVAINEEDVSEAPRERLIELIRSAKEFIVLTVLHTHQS

GRIP2_4, Q9C0E4 = molecular target: GRIP2_4, Q9C0E4
GRIP2_4, Q9C0E4, sequence (Q9C0E4 446-548): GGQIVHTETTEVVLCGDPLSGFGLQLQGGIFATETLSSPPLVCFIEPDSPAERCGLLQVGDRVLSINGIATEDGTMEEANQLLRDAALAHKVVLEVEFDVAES

MAST1, Q9Y2H9 = molecular target: MAST1, Q9Y2H9
MAST1, Q9Y2H9, sequence (Q9Y2H9 962-1065): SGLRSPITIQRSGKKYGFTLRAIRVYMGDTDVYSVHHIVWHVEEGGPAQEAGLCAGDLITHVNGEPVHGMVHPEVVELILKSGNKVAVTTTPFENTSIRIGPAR

DLG5_1, Q8TDM6 = molecular target: DLG5_1, Q8TDM6
DLG5_1, Q8TDM6, sequence (Q8TDM6 617-713): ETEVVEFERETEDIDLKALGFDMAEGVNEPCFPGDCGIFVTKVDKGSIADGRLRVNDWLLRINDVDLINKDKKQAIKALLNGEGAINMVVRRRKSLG

NHERF2_2, Q15599 = molecular target: NHERF2_2, Q15599
NHERF2_2, Q15599, sequence (Q15599 142-238): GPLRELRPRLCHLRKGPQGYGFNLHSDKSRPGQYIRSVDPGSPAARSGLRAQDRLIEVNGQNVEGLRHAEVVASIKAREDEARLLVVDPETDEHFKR

PDZRN3_1, Q9UPQ7 = molecular target: T8, PDZRN3_1, Q9UPQ7
T8 sequence (Q9UPQ7 244-349, limits assumed, looked up): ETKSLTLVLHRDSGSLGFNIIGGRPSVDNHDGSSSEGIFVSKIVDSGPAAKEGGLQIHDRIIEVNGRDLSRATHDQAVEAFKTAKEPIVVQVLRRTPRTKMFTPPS

ARHGEF11, O15085 = molecular target: T9, ARHGEF11, O15085
T9 sequence (O15085 42-136, limits assumed, looked up): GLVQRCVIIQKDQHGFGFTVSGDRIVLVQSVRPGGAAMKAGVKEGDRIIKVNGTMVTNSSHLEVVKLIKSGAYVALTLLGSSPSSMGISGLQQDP

[1] = plain residues with an end cap or a label only (N-terminal biotin on a linker: ahx)
[2] = plain residues with an end cap or a label only (N-terminal biotin on a linker: ttds)

B1: RAPGEF6, Q8TEU7 (peptide)
chain: ADENEQVSAV
pKd (PTPN13_1, Q12923; [1]): below the threshold | pKd (APBA1_2, Q02410; [1]): 3.94 | pKd (ARHGEF12, Q9NZN5-2; [1]): 3.83 | pKd (LNX1_3, Q8TBB1; [1]): below the threshold | pKd (Inadl_9, Q8NI35; [1]): below the threshold | pKd (MAGI1_1, Q96QZ7; [1]): below the threshold | pKd (MAGI2_4, Q86UL8; [1]): below the threshold | pKd (HTRA3, P83110; [1]): below the threshold | pKd (NOS1, P29475; [1]): 3.61 | pKd (LNX2_2, Q8N448; [1]): below the threshold | pKd (HTRA4, P83105; [1]): below the threshold | pKd (MAGI2_5, Q86UL8; [1]): 4.38 | pKd (MAGI2_2, Q86UL8; [1]): below the threshold | pKd (DLG4_3, P78352; [1]): below the threshold | pKd (SCRIB_3, Q14160; [1]): below the threshold | pKd (Inadl_4, Q8NI35; [1]): below the threshold | pKd (APBA2_1, Q99767; [1]): below the threshold | pKd (AHNAK1, Q09666; [1]): below the threshold | pKd (Inadl_3, Q8NI35; [1]): 3.63 | pKd (MAGI2_3, Q86UL8; [1]): 4.15 | pKd (SHANK1, Q9Y566; [1]): 3.88 | pKd (FRMPD3, Q5JV73; [1]): below the threshold | pKd (GRIP2_4, Q9C0E4; [1]): below the threshold | pKd (MAST1, Q9Y2H9; [1]): 4.05 | pKd (DLG5_1, Q8TDM6; [1]): below the threshold | pKd (NHERF2_2, Q15599; [1]): below the threshold | pKd (PDZRN3_1, Q9UPQ7; [1]): 3.79 | pKd (ARHGEF11, O15085; [1]): 4.06

B2: FAT3, Q8TDW7 (peptide)
chain: FVETQHQTQV
pKd (PTPN13_1, Q12923; [2]): below the threshold | pKd (APBA1_2, Q02410; [2]): 3.9 | pKd (ARHGEF12, Q9NZN5-2; [2]): 3.88 | pKd (LNX1_3, Q8TBB1; [2]): below the threshold | pKd (Inadl_9, Q8NI35; [2]): 3.61 | pKd (MAGI1_1, Q96QZ7; [2]): below the threshold | pKd (MAGI2_4, Q86UL8; [2]): 3.91 | pKd (HTRA3, P83110; [2]): below the threshold | pKd (NOS1, P29475; [2]): 3.95 | pKd (LNX2_2, Q8N448; [2]): 3.75 | pKd (HTRA4, P83105; [2]): below the threshold | pKd (MAGI2_5, Q86UL8; [2]): 4.72 | pKd (MAGI2_2, Q86UL8; [2]): 4.02 | pKd (DLG4_3, P78352; [2]): below the threshold | pKd (SCRIB_3, Q14160; [2]): 4.02 | pKd (Inadl_4, Q8NI35; [2]): below the threshold | pKd (APBA2_1, Q99767; [2]): below the threshold | pKd (AHNAK1, Q09666; [2]): 3.52 | pKd (Inadl_3, Q8NI35; [2]): below the threshold | pKd (MAGI2_3, Q86UL8; [2]): 3.63 | pKd (SHANK1, Q9Y566; [2]): 3.63 | pKd (FRMPD3, Q5JV73; [2]): below the threshold | pKd (GRIP2_4, Q9C0E4; [2]): below the threshold | pKd (MAST1, Q9Y2H9; [2]): 4.8 | pKd (DLG5_1, Q8TDM6; [2]): below the threshold | pKd (NHERF2_2, Q15599; [2]): below the threshold | pKd (PDZRN3_1, Q9UPQ7; [2]): 3.53 | pKd (ARHGEF11, O15085; [2]): 4.22

B3: HPV33-E6, P06427 (peptide)
chain: SRSRRRETAL
pKd (PTPN13_1, Q12923; [2]): below the threshold | pKd (APBA1_2, Q02410; [2]): below the threshold | pKd (ARHGEF12, Q9NZN5-2; [2]): 4.78 | pKd (LNX1_3, Q8TBB1; [2]): below the threshold | pKd (Inadl_9, Q8NI35; [2]): below the threshold | pKd (MAGI1_1, Q96QZ7; [2]): below the threshold | pKd (MAGI2_4, Q86UL8; [2]): below the threshold | pKd (HTRA3, P83110; [2]): below the threshold | pKd (NOS1, P29475; [2]): 4.03 | pKd (LNX2_2, Q8N448; [2]): below the threshold | pKd (HTRA4, P83105; [2]): below the threshold | pKd (MAGI2_5, Q86UL8; [2]): below the threshold | pKd (MAGI2_2, Q86UL8; [2]): 5.31 | pKd (DLG4_3, P78352; [2]): 5.32 | pKd (SCRIB_3, Q14160; [2]): 5.3 | pKd (Inadl_4, Q8NI35; [2]): below the threshold | pKd (APBA2_1, Q99767; [2]): below the threshold | pKd (AHNAK1, Q09666; [2]): 3.62 | pKd (Inadl_3, Q8NI35; [2]): below the threshold | pKd (MAGI2_3, Q86UL8; [2]): below the threshold | pKd (SHANK1, Q9Y566; [2]): 3.51 | pKd (FRMPD3, Q5JV73; [2]): below the threshold | pKd (GRIP2_4, Q9C0E4; [2]): below the threshold | pKd (MAST1, Q9Y2H9; [2]): 4.78 | pKd (DLG5_1, Q8TDM6; [2]): below the threshold | pKd (NHERF2_2, Q15599; [2]): 3.97 | pKd (PDZRN3_1, Q9UPQ7; [2]): 5.93 | pKd (ARHGEF11, O15085; [2]): 4.25
